# Results from patent US20150139990A1 (DAINIPPON SUMITOMO PHARMA, published 2015).
# T1: human CD81 on CD81-expressing cells (Jurkat E6.1, human PBMC, Ramos) (human, UniProt P60033 1-236)
# T1 construct: endogenous CD81 of the cells; also called wild type human CD81
# T1 sequence: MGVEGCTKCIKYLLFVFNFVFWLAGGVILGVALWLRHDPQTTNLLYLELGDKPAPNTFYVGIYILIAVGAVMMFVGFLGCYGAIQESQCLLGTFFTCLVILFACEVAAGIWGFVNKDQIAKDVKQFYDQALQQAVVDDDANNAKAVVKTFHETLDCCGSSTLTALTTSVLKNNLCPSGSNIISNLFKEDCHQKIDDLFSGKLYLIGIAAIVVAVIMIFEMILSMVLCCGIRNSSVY
# T2: c190h human-chicken CD81 chimera (chicken; human)
# T2 construct: as m30; not shown: C-terminal V5 and 6xHis tags
# T2 chain: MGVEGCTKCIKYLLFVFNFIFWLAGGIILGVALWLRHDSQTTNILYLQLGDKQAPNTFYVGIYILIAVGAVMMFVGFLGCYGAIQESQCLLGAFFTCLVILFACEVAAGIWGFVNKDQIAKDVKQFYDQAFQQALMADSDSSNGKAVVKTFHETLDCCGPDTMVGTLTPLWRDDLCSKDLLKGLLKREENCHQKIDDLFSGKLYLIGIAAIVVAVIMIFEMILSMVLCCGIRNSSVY
# T3: h175c human-chicken CD81 chimera (human; chicken, UniProt P60033 1-236)
# T3 construct: as m30; not shown: C-terminal V5 and 6xHis tags
# T3 chain: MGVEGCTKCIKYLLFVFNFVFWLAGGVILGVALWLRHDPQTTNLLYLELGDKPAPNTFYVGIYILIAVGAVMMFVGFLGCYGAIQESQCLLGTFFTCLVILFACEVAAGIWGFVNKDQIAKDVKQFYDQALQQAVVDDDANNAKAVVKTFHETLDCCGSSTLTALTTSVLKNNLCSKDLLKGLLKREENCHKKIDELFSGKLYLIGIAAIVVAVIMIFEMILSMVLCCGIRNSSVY
# T4: c138h human-chicken CD81 chimera (chicken; human, UniProt P60033 1-236)
# T4 construct: as m30; not shown: C-terminal V5 and 6xHis tags
# T4 chain: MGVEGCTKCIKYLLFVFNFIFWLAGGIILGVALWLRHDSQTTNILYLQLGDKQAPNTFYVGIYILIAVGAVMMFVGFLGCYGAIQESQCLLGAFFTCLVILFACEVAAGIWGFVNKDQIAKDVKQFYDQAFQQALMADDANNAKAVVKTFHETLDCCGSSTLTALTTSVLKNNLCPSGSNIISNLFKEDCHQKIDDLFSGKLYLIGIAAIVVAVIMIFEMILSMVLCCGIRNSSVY
# T5: c156h human-chicken CD81 chimera (chicken; human, UniProt P60033 1-236)
# T5 construct: as m30; not shown: C-terminal V5 and 6xHis tags
# T5 chain: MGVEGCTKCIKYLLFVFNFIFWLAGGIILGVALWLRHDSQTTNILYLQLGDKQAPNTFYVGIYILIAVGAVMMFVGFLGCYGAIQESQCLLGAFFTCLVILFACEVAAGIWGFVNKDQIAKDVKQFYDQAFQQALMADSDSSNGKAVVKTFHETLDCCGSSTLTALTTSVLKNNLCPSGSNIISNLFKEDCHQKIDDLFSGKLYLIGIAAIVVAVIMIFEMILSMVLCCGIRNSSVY
# B1: 002-A07 IgG4 antibody (antibody)
# heavy: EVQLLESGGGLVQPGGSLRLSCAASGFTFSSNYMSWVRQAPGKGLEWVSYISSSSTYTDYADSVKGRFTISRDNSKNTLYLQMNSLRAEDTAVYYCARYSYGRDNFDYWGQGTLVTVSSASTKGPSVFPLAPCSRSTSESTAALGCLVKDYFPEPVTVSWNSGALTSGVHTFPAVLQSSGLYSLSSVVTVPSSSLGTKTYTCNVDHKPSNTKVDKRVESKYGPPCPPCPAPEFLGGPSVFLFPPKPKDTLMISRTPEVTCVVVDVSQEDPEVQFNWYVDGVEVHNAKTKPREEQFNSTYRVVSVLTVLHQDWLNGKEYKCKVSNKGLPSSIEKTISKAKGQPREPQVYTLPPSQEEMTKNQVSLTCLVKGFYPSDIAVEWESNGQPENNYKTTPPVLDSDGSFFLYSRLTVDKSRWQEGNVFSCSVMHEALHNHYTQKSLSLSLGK
# light: QSVLTQPPSASGTPGQRVTISCTGSTSNIGAGYDTHWYQQLPGTAPKLLIYGNSNRPSGVPDRFSGSKSGTSASLAISGLRSEDEADYYCQSYDTNLSVWVFGGGTKLTVLGQPKAAPSVTLFPPSSEELQANKATLVCLISDFYPGAVTVAWKADSSPVKAGVETTTPSKQSNNKYAASSYLSLTPEQWKSHRSYSCQVTHEGSTVEKTVAPTECS
# notes: human IgG4 S228P, lambda light chain
# Tests used:
# [1] = molecular target: T1, human CD81 on CD81-expressing cells …; assay: flow cytometry, human PBMC
# Text: Based on known information (JOURNAL OF VIROLOGY., 79, 4316-4328, 2005), Jurkat E6.1 cells and human PBMC (Peripheral Blood Mononuclear cells) were used as human CD81-expressing cells to confirm binding of the antibodies of the present invention obtained in Example 1 to the human CD81-expressing cells. Jurkat E6.1 cells were purchased from European Collection of Cell Cultures (ECACC) (Cat No. 88042803). Human PBMC were purchased from KAC Co., Ltd. (KAC). These cells were collected by centrifugation (4,000 rpm, 3 min, 4° C.) and suspended in FACS staining buffer (phosphate buffer, 0.09% sodium azide, 1% bovine serum albumin (BSA: Hyclone Laboratories)). The number of viable cells was counted using trypan blue and 10⁶ cells/100 μl were added in an eppendorf tube.
# To the cells prepared in (1) above was added the anti-human CD81 antibody (002-A07 or 005-001) prepared in Example 1 or a human IgG4 (Acris) as a control (0.1 μg), and the cells were incubated for 20 min at 4° C. […] The binding ratio (%) of the anti-human CD81 antibody to the cells was analyzed by flow cytometry using FACS Calibur (BD Biosciences) and calculated as the percentage of cells having a PE-derived fluorescent intensity greater than that observed when the control IgG4 is used. […]
# [2] = molecular target: T2, c190h human-chicken CD81 chimera; assay: ELISA
# Experimental: (§1) To identify the epitopes to which each of the anti-human CD81 antibodies (002-A07 and 005-001) bind, ELISA assays were performed using human-chicken CD81 chimera constructs listed in Table 6. Each construct was transiently expressed in CHO cells and its cell membrane fraction was solubilized with detergents and immobilized onto a plate.
# (§2) As control antibodies, human IgG4 antibody (Acris Antibodies GmbH) and mouse IgG antibody were used. Human-chicken chimera protein was captured via His tag introduced into the C-terminal by adding the membrane fraction (5 μg/100 μL/well) prepared (1) above to Ni NTA His Sorb plate (QIAGEN) in the presence of 1% (w/v) n-Octylglucoside and incubating for 3 hours at 4° C. After washing with TBST (TBS, 0.05% (v/v) Tween 20) three times, an anti-human CD81 antibody or a control antibody (50 μL/well) was added and incubated for 1 hour at room temperature (RT). After washing, 2000 fold-diluted HRP-labeled anti-human IgG4 antibody (Mouse anti-human IgG₄ HRP clone:HP6023 Beckman Coulter) or 1000 fold-diluted HRP-labeled anti-mouse IgG antibody (Invitrogen) (50 μL/well) were added. The plate was incubated for 1 hour at RT and washed with TBST three times. And then, peroxidase activity was determined by TMB One solution (Promega; Code 53025). The reaction was stopped with 2 M H₂SO₄ (50 μL) and absorbance at 450 nm was measured.
# [3] = molecular target: T3, h175c human-chicken CD81 chimera; assay: ELISA
# Experimental: as §1, §2
# [4] = molecular target: T4, c138h human-chicken CD81 chimera; assay: ELISA
# Experimental: as §1, §2
# [5] = molecular target: T5, c156h human-chicken CD81 chimera; assay: ELISA
# Experimental: as §1, §2
binder,measurement,setting,value
B1,binding ratio to cells (%),[1],99%
same,absorbance at 450 nm relative to hCD81,[2],< 10%
same,binding result,[3],binds
same,absorbance at 450 nm relative to hCD81,[4],< 10%
same,absorbance at 450 nm relative to hCD81,[5],< 10%
